Biological target: LS-Rg, chimeric protein of the extracellular domain of human L-selectin joined to the Fc domain of a human G2 immunoglobulin (human) (UniProt P14151)
Assay: competition of unlabeled antibody against radiolabeled 2'-F RNA ligand LF1807 on purified LS-Rg

Sequence of LS-Rg, chimeric protein of the extracellular domain of human L-selectin joined to the Fc domain of a human G2 immunoglobulin (human) (P14151 39-332, stated change not applied): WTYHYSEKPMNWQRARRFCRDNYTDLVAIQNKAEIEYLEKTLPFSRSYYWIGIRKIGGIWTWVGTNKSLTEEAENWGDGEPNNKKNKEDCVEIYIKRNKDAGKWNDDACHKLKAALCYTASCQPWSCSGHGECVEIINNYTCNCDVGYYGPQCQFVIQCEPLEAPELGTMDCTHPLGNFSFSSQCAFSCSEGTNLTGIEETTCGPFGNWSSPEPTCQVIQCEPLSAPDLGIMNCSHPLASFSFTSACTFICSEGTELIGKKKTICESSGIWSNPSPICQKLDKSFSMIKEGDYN

- concentration for complete inhibition: 300 nM
Substance: DREG-56, L-selectin specific blocking monoclonal antibody

Reference: US20030059769A1
